Drawing on article PMC9007595 (Molecular microbiology, 2020), this text covers stoichiometry N for three substances.

Common to all, as to assay: cross-linking
Assay [1] addresses Mycobacterium tuberculosis HtpG-His6 with para-benzoyl-phenylalanine at W197 (Mycobacterium tuberculosis) (UniProt P9WMJ7).
Assay [2] has as its target Mycobacterium tuberculosis HtpG-His6 with para-benzoyl-phenylalanine at F10 (Mycobacterium tuberculosis) (UniProt P9WMJ7).
For assay [3], the target named is Mycobacterium tuberculosis HtpG-His6 with para-benzoyl-phenylalanine at F635 (Mycobacterium tuberculosis) (UniProt P9WMJ7).

Consider “Mycobacterium tuberculosis HtpG-His6 with para-benzoyl-phenylalanine at W197 (from UniProt P9WMJ7 1-647) (natural protein)”, for which the stoichiometry N in assay [1] stood at 2.
On to “Mycobacterium tuberculosis HtpG-His6 with para-benzoyl-phenylalanine at F10 (from UniProt P9WMJ7 1-647) (natural protein)”, for which the stoichiometry N in assay [2] came out at 2.
With “Mycobacterium tuberculosis HtpG-His6 with para-benzoyl-phenylalanine at F635 (from UniProt P9WMJ7 1-647) (natural protein)”, in assay [3], the stoichiometry N stood at 2.

A word on the stoichiometry N: it is a count of units in the complex or per binding partner.
